In patent publication US8252583B2, “Method for inducing differentiation into cardiomyocytes using G-CSF” (Keiichi Fukuda, priority 2007, dated 2012):

Key:
human ES cells = human ES cells treated with 5-azacytidine; rises from 15%; cited from earlier work
cardiomyocyte markers [1] = test: Expression of cardiomyocyte markers in ES cell-derived EBs (RT-PCR, immunostaining); assay type: cell-based, mouse
Excerpt: Next, EBs at day 9 were used and analyzed for the expression of various cardiomyocyte-specific genes by RT-PCR and immunostaining. The cardiomyocyte markers used in RT-PCR were Tbx-5, MEF-2c (muscle enhancement factor-2c), Nkx2.5, GATA-4, βMHC (β myosin heavy chain), MLC-2v (myosin light chain-2v), αMHC (α-myosin heavy chain), BNP (brain natriuretic peptide), ANP (atrial natriuretic peptide) and GAPDH (glyceraldehyde-3-phosphate dehydrogenase). The cardiomyocyte markers used in immunostaining were α-actinin, actin, troponin 1-C, MF20 and ANP. […] Further, to study the optimum concentration of G-CSF, G-CSF was added at various concentrations (0.25, 0.75, 2.5, 7.5, 25, 75 ng/ml) to EBs at day 6, followed by RT-PCR to analyze the expression of each cardiomyocyte marker. It should be noted that EBs prepared at two cell densities, H ([…]) and L (5×10^4 cell/ml), were used in this test. […] To confirm a possibility that the promoting effect of G-CSF treatment to induce myocardial differentiation from ES cells would be mediated by the endogenous G-CSF signaling pathway, anti-G-CSF antibody (R&D systems) was added to medium simultaneously with G-CSF treatment and studied for its effect. EBs at day 6 were treated with G-CSF (7.5 ng/mL) in the presence of anti-G-CSF antibody at various concentrations (0, 1, 3, 9 ng/ml) to study the effect of anti-G-CSF antibody using various cardiomyocyte markers. […] To test the proliferation-promoting effect of G-CSF on ES cell-derived cardiomyocytes, EBs at day 6 were used to prepare G-CSF (7.5 ng/mL)-treated and untreated groups and a G-CSF+nocodazole (0.2 μg/mL)-treated group. […] These three groups were tested for various cardiomyocyte markers by RT-PCR.

G-CSFR expression = G-CSFR expression in EBs derived from ES cells treated with Noggin (RT-PCR, immunostaining); assay type: cell-based, mouse
Method: (§1) In the experiments described below, EB3 cells (kindly provided by Dr. Hitoshi Niwa of Riken, Japan) and R1 cells (kindly provided by Dr. Andrew Nagy of Mount Sinai Hospital, Canada) were used as ES cells. These ES cells were maintained on gelatin-coated plates in Glasgow Minimum Essential Medium (GMEM; Sigma) containing 10% fetal bovine serum, 2 mM L-glutamine, 0.1 mM nonessential amino acid solution, 1 mM sodium pyruvate, 0.1 mM 2-mercaptoethanol and 2000 U/mL leukemia inhibitory factor (LIF) (ESGRO; Chemicon).
Suspension culture was performed as follows to form EBs from ES cells. ES cells were cultured for 3 days on gelatin-coated plates in α-MEM medium containing 10% fetal bovine serum, 2 mM L-glutamine, 0.1 mM nonessential amino acid solution, 1 mM sodium pyruvate, 0.1 mM 2-mercaptoethanol, 2000 U/mL leukemia inhibitory factor and 0.15 μg/ml Noggin (Noggin-Fc, R&D). The ES cells were then dispersed into single cells by treatment with a trypsin solution, and further cultured on uncoated Petri dishes using a three-dimensional culture system in the same differentiation medium as used above (except being free from LIF) to form spheroids, from which EBs (embryoid bodies) were induced. […]

[2] = tested on: fetal myocardial proliferation; test: In vivo effect of G-CSF on cardiogenesis: BrdU immunostaining of fetal heart sections; set-up: species or system mouse
Method: (§2) At 9.0 days of pregnancy, mice were laparotomized and G-CSF (100 ng/kg) or PBS (phosphate-buffered physiological saline; serving as a control) was directly administered into their uteri. At 9.5 days of pregnancy, the mice were then administered with BrdU (bromodeoxyuridine) by the intraperitoneal route. BrdU is incorporated during DNA synthesis and allows proliferation assessment by immunostaining. At 12.5 days of pregnancy, fetuses were collected to prepare heart sections, which were then analyzed in the same manner as shown for immunostaining in Example 1(2).
Moreover, for quantification of the myocardial proliferation-promoting effect, the BrdU labeling index was calculated by the following equation. It should be noted that wild-type mice were used in this test, which were administered with BrdU at 10.5 days of pregnancy and analyzed at 12.5 days of pregnancy. BrdU labeling index=BrdU positive nuclei/total nuclei×100(%)

[3] = tested on: fetal myocardial proliferation; test: In vivo effect of G-CSF on cardiogenesis: Phospho-Histon H3 immunostaining of fetal heart sections; set-up: species or system mouse
Method: G-CSF (2 ng) was directly administered into the uteri of pregnant mice at 9.0 days of pregnancy. At 13.5 days of pregnancy, fetuses were collected to prepare heart sections, which were then immunostained with Phospho-Histon H3. Phospho-Histon H3 is a dye that is specifically stained during the cell proliferation process.
Next, the labeling index was calculated by the following equation. Labeling index=Phospho-Histon H3 positive nuclei/total nuclei×100(%)

fetal hearts = test: Hematoxylin-eosin staining of fetal heart sections after G-CSF administration; assay type: in vivo, mouse; settings: G-CSF 100 ng/kg into uteri at 9.0 days of pregnancy; fetal hearts at 12.5 days
Method: as §2

[4] = tested on: ES cell-derived cardiomyocytes; test: BrdU incorporation in ES cell-derived EBs (double immunostaining anti-BrdU / anti-mef2c); assay type: cell-based, mouse; settings: EBs at day 6, G-CSF 2.5 ng/mL, BrdU for 18 hours; vs untreated
Method: In addition, EBs at day 6 were used to prepare G-CSF (2.5 ng/mL)-treated and untreated groups, which were then incubated with BrdU for 18 hours.

cardiomyocyte markers [5] = test: Cardiomyocyte marker expression in CMES cells (RT-PCR, immunostaining); assay type: cell-based, common marmoset; settings: for expression of cardiomyocyte markers (RT-PCR, FIG. 21b): CMES cells
Method: (§3) To test the effect of G-CSF on primate cardiogenesis, common marmoset ES (CMES) cells (#20) (Sasaki et al., Stem Cells 23, 1304-1313 (2005)) were used. CMES cells were maintained on a layer of mitotically inactivated mouse embryonic fibroblasts (MEFs) in Knockout DMEM (GIBCO) medium supplemented with 20% Knockout Serum Replacement (KSR; GIBCO), 1 mM L-glutamine (GIBCO), 0.1 mM MEM nonessential amino acids (GIBCO), 0.1 mM β-mercaptoethanol (2-ME; Sigma), 10 ng/ml fibroblast growth factor (bFGF; Invitrogen) and 10 ng/ml human leukemia inhibitory factor (hLIF; Alomone labs). CMES cells were passaged every 5 days to maintain their undifferentiated state.
(§4) Undifferentiated CMES cells were removed from the MEF feeder layer, dissociated into small colonies with a dissociation solution for human and monkey ES cells (ReproCELL. JAPAN), and then cultured to form EBs in suspension culture using HydroCell culture plates (CellSeed, JAPAN) in medium free from bFGF and hLIF.

[6] = tested on: common marmoset ES (CMES) cells; test: Spontaneous beating of common marmoset ES cell-derived EBs; assay type: cell-based; settings: G-CSF 2.5 ng/mL added at 4, 6 or 9 days after EB formation
Method: as §3, §4
At 4, 6 and 9 days after EB formation, G-CSF (2.5 ng/mL) was added to observe spontaneous beating. The best result was obtained upon addition at 6 days after EB formation, and the difference between G-CSF-treated and untreated groups became evident at 14 days after EB formation.

ES cells = test: Induction test of cardiomyocyte differentiation: autonomously beating EBs / total EBs; assay type: cell-based, mouse
Method: as §1
Namely, on gelatin-coated dishes, ES cells were maintained in an undifferentiated state in the presence of LIF, and suspension culture was started at day 0 in the absence of LIF to initiate differentiation of the ES cells, whereby EBs which had differentiated into cardiomyocytes were obtained at day 9. At days 5, 6, 7 and 8, G-CSF (2.5 ng/ml) was added and studied for its effect on EB formation. This effect was calculated by dividing the number of autonomously beating EBs by the total number of EBs.
Based on the above results, the optimum concentration of G-CSF was determined. The optimum concentration was studied by comparing the values calculated by dividing the number of autonomously beating EBs by the total number of EBs.

For `Nc1ncn([C@@H]2O[C@H](CO)[C@@H](O)[C@H]2O)c(=O)n1` [5-azacytidine], the “percentage of troponin I-positive cells (cardiomyocytes) in EBs” value (human ES cells) is listed as 44%.

For `COC(=O)Nc1nc2ccc(C(=O)c3cccs3)cc2[nH]1` [Nocodazole, reference compound], the “effect on G-CSF-increased expression of cardiomyocyte markers (RT-PCR, FIG. 19)” value (cardiomyocyte markers [1]; EBs at day 6, G-CSF 7.5 ng/mL + nocodazole 0.2 μg/mL) was “cancelled the increased expression of the cardiomyocyte markers”.

For Noggin, the “G-CSFR expression in EBs (immunostaining, FIG. 11)” value (G-CSFR expression; Noggin(+) group vs Noggin(−) group, EBs at 6 days after EB formation) was “G-CSFR expression is increased” and the “start of G-CSFR expression in EBs (RT-PCR, FIG. 10)” value (G-CSFR expression; Noggin(+) group, 0.15 μg/ml Noggin for 3 days) was 5 days after EB formation.

B1: G-CSF: hematopoietic factor, differentiation-inducing factor for granulocyte lineage hematopoietic stem cells; agonist for G-CSF receptor (protein, listed as Homo sapiens)
chain: TPLGPASSLPQSFLLKCLEQVRKIQGDGAALQEKLCATYKLCHPEELVLLGHSLGIPWAPLSSCPSQALQLAGCLSQLHSGLFLYQGLLQALEGISPELGPTLDTLQLDVADFATTIWQQMEELGMAPALQPTQGAMPAFASAFQRRAGGVLVASHLQSFLEVSYRVLRHLAQP
With B1 the “fetal myocardial proliferation (BrdU immunostaining, FIG. 4)” value ([2]; G-CSF 100 ng/kg into uteri at 9.0 days of pregnancy, BrdU i.p. at 9.5 days, fetuses collected at 12.5 days, vs PBS) was “promoted fetal myocardial proliferation”, the “BrdU labeling index (FIG. 6)” value ([2]; wild-type mice, BrdU at 10.5 days of pregnancy, analyzed at 12.5 days) was “enhance myocardial proliferation” and the “fetal myocardial proliferation (Phospho-Histon H3 immunostaining, FIG. 7)” value ([3]; G-CSF 2 ng into uteri at 9.0 days of pregnancy, fetuses collected at 13.5 days) was “enhance fetal myocardial proliferation”. For the same molecule, the “Phospho-Histon H3 labeling index (FIG. 8)” value ([3]; embryonic days 8.5 to 10.5) was “strongly enhance myocardial proliferation”, the “heart section morphology (hematoxylin-eosin, FIG. 5a)” value (fetal hearts) was “extended trabecular layer” and the “cell proliferation of cardiomyocytes (BrdU labeling index, FIG. 20)” value [4] was “promote cell proliferation of cardiomyocytes”. For the same molecule, the “cardiac troponin I- and Nkx2.5-positive areas (immunostaining, FIG. 21c)” value (cardiomyocyte markers [5]; CMES-derived EBs, G-CSF-treated vs untreated) was “enhanced cardiac troponin I- and Nkx2.5-positive areas”, the “expression of cardiomyocyte markers (RT-PCR and immunostaining, FIG. 15)” value (cardiomyocyte markers [1]; EBs at day 9, G-CSF-treated group) was “all the cardiomyocyte markers showed increased expression levels” and the “expression of contractile proteins, transcription factors and secretory proteins (RT-PCR, FIG. 16)” value (cardiomyocyte markers [1]; G-CSF 0.25 to 25 ng/ml added to EBs at day 6, cell densities H (2×10^3 cell/ml) and L (5×10^4 cell/ml), vs control group) was “increased expression levels”. The “effect of G-CSF addition on cardiogenesis (spontaneous beating, FIG. 21a)” value [6] was “highest at 6 days after EB formation”, the “effect on EB formation (autonomously beating EBs / total EBs, FIG. 14)” value (ES cells; G-CSF 2.5 ng/ml added at days 5, 6, 7 or 8, result for addition at day 6) was “greatest effect on EB formation” and the “optimum timing of G-CSF administration” value (ES cells; G-CSF 2.5 ng/ml, days 5, 6, 7 and 8 compared) was 6 days. For the same molecule, the “optimum concentration of G-CSF (autonomously beating EBs / total EBs, FIG. 17)” value (ES cells; added to EBs at day 6) was 0.75 ng/mL.

B2: mouse G-CSF: G-CSF of mouse origin used on CMES cells (protein, UniProt P09920 31-208, looked up)
Granulocyte …: VPLVTVSALPPSLPLPRSFLLKSLEQVRKIQASGSVLLEQLCATYKLCHPEELVLLGHSLGIPKASLSGCSSQALQQTQCLSQLHSGLCLYQGLLQALSGISPALAPTLDLLQLDVANFATTIWQQMENLGVAPTVQPTQSAMPAFTSAFQRRAGGVLAISYLQGFLETARLALHHLA
With B2 the “expression of cardiomyocyte markers (RT-PCR, FIG. 21b)” value (cardiomyocyte markers [5]) was “strongly enhance the expression of the cardiomyocyte markers”.

B3: human G-CSF: G-CSF of human origin used on CMES cells (protein, UniProt P09919 31-207, looked up)
Granulocyte …: TPLGPASSLPQSFLLKCLEQVRKIQGDGAALQEKLVSECATYKLCHPEELVLLGHSLGIPWAPLSSCPSQALQLAGCLSQLHSGLFLYQGLLQALEGISPELGPTLDTLQLDVADFATTIWQQMEELGMAPALQPTQGAMPAFASAFQRRAGGVLVASHLQSFLEVSYRVLRHLAQP
In the case of B3, the “expression of cardiomyocyte markers (RT-PCR, FIG. 21b)” value (cardiomyocyte markers [5]) is reported as “strongly enhance the expression of the cardiomyocyte markers”.
